The values that follow come from PMC2528193.

Where “and” joins values, the source holds several entries; their conditions need not be identical. Equal entries are not always repeated.

Data set [1] deals with PfHUp (processed PfHU, bacterial histone-like protein) (Plasmodium falciparum). Description: EMSA.
The target of data set [2] is predicted processed PfHU (P. falciparum bacterial histone-like protein), recombinant (P. falciparum). Description: cross-linking.
Data set [3] has the same target. Description: SDS-resistant dimer on SDS-PAGE with anti-His Western blot.

As usually defined, the Kd is a measure of binding affinity in units of concentration. In turn, 30 bp probe displayed a Kd in data set [1] of 62.7 nM. Usually stoichiometry N stands for a count of units in the complex or per binding partner. In the case of “predicted processed PfHU (P. falciparum bacterial histone-like protein), recombinant (domain or fragment)”, the stoichiometry N in data set [2] is 2 and 4; in data set [3], 2.
